One molecule from patent publication US20240377400A1, “METHODS FOR TREATING A SUBTYPE OF COLORECTAL CANCER” (Cornell University, priority 2021, published 2024) can be followed below.

In assay [1] the test system is tumors from Prkci^fl/fl Prkcz^fl/fl Villin-cre (DKO) mice. Nature of the assay: scRNAseq and IHC of DKO mouse intestinal tumors treated with PVHA or Galunisertib. It counts as in vivo. Conditions: non-tumor area.
The next assay relates to MTO-sgC tumors. Nature of the assay: Subcutaneous MTO-sgC control tumors in syngeneic C57BL/6J mice treated with PEGPH20. It counts as in vivo, mouse. Conditions: PEGPH20 0.0375 mg/Kg twice a week, 3 weeks. The method, then: FIGS. 8F-8J illustrate subcutaneous injection of sgPrkci/Prkcz and sgC MTOs in WT mice. Mice were treated twice a week with Veh or PEGPH20 0.0375 mg/kg for 3 weeks (MTOs: sgC n=10, sgC PEGPH20-treated n=10, sgPrkci/Prkcz n=10, and sgPrkci/Prkcz PEGPH20-treated n=8). Experimental design (F); Immunohistochemistry (IHC) for HA, Masson's trichrome, and αSMA (G) staining quantification (H); tumor volume (I) and tumor weight (J). Scale bars, 100 μm.
For colonoscopy-guided orthotopic injection in the colon submucosa using mouse tumor organoids (MTOs), a 10 μl organoid suspension of equivalent to 40-50 MTOs admixed with 10% Matrigel (Corning) was directly injected into the colonic submucosa of 7 weeks old C57BL/6 mice. 4 weeks after implantation, tumors were collected and analyzed histologically. Orthotopic tumor sizes were measured by caliper after mice were sacrificed. For xenografts using MTOs, a 100 μl cell suspension of equivalent to 0.5×10^6 cells of sgPrkci/Prkcz or sgC MTOs admixed with 30% Matrigel (Corning) was directly injected subcutaneously into the right flank of 7 weeks old C57BL/6 mice. […] Tumors were measured twice a week. Mice were euthanized three weeks after treatment and tumors were analyzed histologically. […]

B1: PEGPH20: a PEGylated version of human recombinant PH20 hyaluronidase; clinical-grade pegylated hyaluronidase (Halozyme Therapeutics) (protein, UniProt P38567 36-490, looked up)
Hyaluronidase PH-20: LNFRAPPVIPNVPFLWAWNAPSEFCLGKFDEPLDMSLFSFIGSPRINATGQGVTIFYVDRLGYYPYIDSITGVTVNGGIPQKISLQDHLDKAKKDITFYMPVDNLGMAVIDWEEWRPTWARNWKPKDVYKNRSIELVQQQNVQLSLTEATEKAKQEFEKAGKDFLVETIKLGKLLRPNHLWGYYLFPDCYNHHYKKPGYNGSCFNVEIKRNDDLSWLWNESTALYPSIYLNTQQSPVAATLYVRNRVREAIRVSKIPDAKSPLPVFAYTRIVFTDQVLKFLSQDELVYTFGETVALGASGIVIWGTLSIMRSMKSCLLLDNYMETILNPYIINVTLAAKMCSQVLCQEQGVCIRKNWNSSDYLHLNPDNFAIQLEKGGKFTVRGKPTLEDLEQFSEKFYCSCYSTLSCKEKADVKDTDAVDVCIADGVCIDAFLKPPMETEEPQIFYNASPSTLS
modifications: PEGylated
In the case of B1, in assay [1], the “Olfm4 (Stem cell marker) IHC” value is listed as “increase”. Besides, the “growth properties of MTO-sgC tumors” value with MTO-sgC tumors was “did not affect”.
